The results in this text go back to the Immune Epitope Database (IEDB).

As usually defined, the IC50 is the concentration needed to halve the response being measured. The low end stands for higher potency, the high end for lower potency.

The target in the test is HLA-B*07:02. The test is described as follows: IEDB peptide-MHC binding, purified MHC/competitive/fluorescence; ≥ and ≤ were set here for values at or beyond the usual limits of such assays. To be noted: source organism: Homo sapiens.

Sequence LPTSHPKIV registered an IC50 of 3560 nM.
For the sequence STTAICATGL, the 50% inhibitory concentration (IC50) was no less than 248000 nM.
The sequence SPNQARAQAAL returned a concentration for half-maximal inhibition (IC50) of 926 nM.
In turn, TPQSNRPVM showed an IC50 of 466 nM.
With AARPATSTL, the IC50 worked out at 210 nM.
The sequence GPRTAALGLL returned an IC50 of 258 nM.
In the case of APAYSRAL, the IC50 was found to be 215 nM.
The sequence RPYSNVSNL had an IC50 of 228 nM.
In turn, NPNQNKNVAL gave an IC50 of 1580 nM.
Under APKRPPSAF stands 176 nM.
In the case of IATVDSYVI, the IC50 was no less than 219000 nM.
